Sequences and labels used below:
B4: IL-11Δ10/IL-11Rα_(D1-D3) binary complex (complex, human)
chain 1: SPDPRAELDSTVLLTRSLLADTRQLAAQLRDKFPADGDHNLDSLPTLAMSAGALGALQLPGVLTRLRADLLSYLRHVQWLRRAGGSSLKTLEPELGTLQARLDRLLRRLQLLMSRLALPQPPPDPPAPPLAPPSSAWGGIRAAHAILGGLHLTLDWAVRGLLLLKTRL
chain 2: SSPCPQAWGPPGVQYGQPGRSVKLCCPGVTAGDPVSWFRDGEPKLLQGPDSGLGHELVLAQADSTDEGTYICQTLDGALGGTVTLQLGYPPARPVVSCQAADYENFSCTWSPSQISGLPTRYLTSYRKKTVLGADSQRRSPSTGPWPCPQDPLGAARCVVHGAEFWSQYRINVTEVNPLGASTRLLDVSLQSILRPDPPQGLRVESVPGYPRRLRASWTYPASWPCQPHFLLKFRLQYRPAQHPAWSTVEPAGLEEVITDAVAGLPHAVRVSARDFLDAGTWSTWSPEAWGTPSTGT
notes: IL-11, human, IL-11Δ10, as m1; numbers count on: the mature protein; IL-11Rα, human, D1-D3, as m8; m1 with m8; also called IL-11Rα_(D1-D3)/IL-11Δ10 binary complex; binary IL-11/IL-11Rα complex; source: formed from the purified proteins (IL-11Δ10 from E. coli, IL-11Rα_(D1-D3) from Sf21); in ITC by titrating the cytokine into IL-11Rα; not shown: His6, N-terminal, cleaved; His8, N-terminal, cleaved; …

For data set [1], the target named is IL-11_(Δ10/PAIDY)/IL-11Rα_(D1-D3) binary complex (human) (UniProt P20809). The data set is described as follows: ITC; gp130 in the syringe titrated against the cytokine/IL-11Rα_(D1-D3) complex formed in the cell, 288 K, TBS pH 8.5, 1:1 interaction model, n = 3. (In general: ITC needs no label: the signal is the heat of the interaction.)
Data set [2] has as its target B4. The data set is described as above. As to conditions: both partners purified.
In data set [3] the target is T1, IL-11_(Δ10/Mutein)/IL-11Rα_(D1-D3) binary complex (human, UniProt P20809 32-199; Q14626 23-319, W147A | ^58AMSAG^62 to ^58PAIDY^62).
T1 construct: IL-11, human, IL-11Δ10 with W147A and 58-62 AMSAG to PAIDY, as m4; numbers count on: the mature protein; IL-11Rα, human, D1-D3, as m8; m4 with m8; source: formed from the purified proteins; in ITC by titrating the cytokine into IL-11Rα; not shown: His6, N-terminal, cleaved; His8, N-terminal, cleaved
T1 sequence 1: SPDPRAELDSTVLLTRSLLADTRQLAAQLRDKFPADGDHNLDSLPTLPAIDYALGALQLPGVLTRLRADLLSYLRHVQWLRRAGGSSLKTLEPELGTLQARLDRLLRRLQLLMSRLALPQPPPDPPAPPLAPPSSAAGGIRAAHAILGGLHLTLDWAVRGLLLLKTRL
T1 sequence 2: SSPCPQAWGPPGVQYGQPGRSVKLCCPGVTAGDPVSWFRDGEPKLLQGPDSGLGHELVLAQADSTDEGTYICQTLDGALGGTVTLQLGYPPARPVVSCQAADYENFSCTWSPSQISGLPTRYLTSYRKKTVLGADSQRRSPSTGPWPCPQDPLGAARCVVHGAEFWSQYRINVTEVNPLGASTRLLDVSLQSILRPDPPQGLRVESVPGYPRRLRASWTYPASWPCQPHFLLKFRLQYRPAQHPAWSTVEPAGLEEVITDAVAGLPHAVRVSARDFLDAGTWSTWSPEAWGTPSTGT
Described as above. As to conditions: both partners purified.

Data set [4] deals with the molecule itself. The data set is described as follows: AUC; sedimentation velocity, 50,000 rpm, 20 °C, c(s) model with floating frictional ratio (SEDFIT).
The target of data set [5] is T2, gp130EC (human, UniProt P40189 23-619, N-linked glycans (N21, N61, N135 seen in the structures)).
T2 construct: Secreted with a honeybee-melittin signal peptide; D5-D6 are not in the deposited model 8DPT; also called complete extracellular domains of gp130; D1-D6 domains of gp130; not shown: His8, N-terminal, cleaved
T2 sequence (looked up): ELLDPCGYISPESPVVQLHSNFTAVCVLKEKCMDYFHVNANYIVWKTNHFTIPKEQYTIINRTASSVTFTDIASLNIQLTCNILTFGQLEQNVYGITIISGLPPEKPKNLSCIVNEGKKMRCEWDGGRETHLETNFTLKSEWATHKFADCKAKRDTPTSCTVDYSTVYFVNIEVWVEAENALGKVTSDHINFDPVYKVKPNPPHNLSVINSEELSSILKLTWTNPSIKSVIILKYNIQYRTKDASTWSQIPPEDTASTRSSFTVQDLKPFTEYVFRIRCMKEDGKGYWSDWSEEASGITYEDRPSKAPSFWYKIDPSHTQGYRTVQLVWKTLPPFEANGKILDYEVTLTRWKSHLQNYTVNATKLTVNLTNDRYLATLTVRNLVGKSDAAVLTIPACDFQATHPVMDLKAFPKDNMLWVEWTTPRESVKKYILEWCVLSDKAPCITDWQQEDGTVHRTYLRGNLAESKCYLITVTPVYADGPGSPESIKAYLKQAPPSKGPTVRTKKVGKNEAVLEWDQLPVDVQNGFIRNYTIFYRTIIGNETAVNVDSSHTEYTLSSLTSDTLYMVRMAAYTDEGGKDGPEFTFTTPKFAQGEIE
The data set is described as follows: cryo-EM structure; IL-11Δ10/IL-11Rα_(D1-D3)/gp130EC complex, 1.5 mg/mL, with 1–2 mM n-dodecyl β-D-maltoside, not size exclusion purified; C2 symmetry, 3.8 Å. As to conditions: both partners purified.

In data set [6] the target is T2, gp130EC. The data set can be described thus: ITC; gp130 in the syringe titrated against the cytokine/IL-11Rα_(D1-D3) complex formed in the cell, 288 K, TBS pH 8.5, 1:1 interaction model, n = 3. As to conditions: both partners purified.

B1: gp130_(D1-D3) (receptor, human)
chain: GELLDPCGYISPESPVVQLHSNFTAVCVLKEKCMDYFHVNANYIVWKTNHFTIPKEQYTIINRTASSVTFTDIASLNIQLTCNILTFGQLEQNVYGITIISGLPPEKPKNLSCIVNEGKKMRCEWDGGRETHLETNFTLKSEWATHKFADCKAKRDTPTSCTVDYSTVYFVNIEVWVEAENALGKVTSDHINFDPVYKVKPNPPHNLSVINSEELSSILKLTWTNPSIKSVIILKYNIQYRTKDASTWSQIPPEDTASTRSSFTVQDLKPFTEYVFRIRCMKEDGKGYWSDWSEEASGITYEDR
modifications: N-linked glycans (N21, N61, N135 seen in the structures)
notes: glycoprotein 130 (gp130), human, domains D1-D3; Secreted with a honeybee-melittin signal peptide; not shown: His8, N-terminal, cleaved
In the case of B1, the Kd – broadly, the constant that tells how readily two partners part at equilibrium – is 20 nM in data set [1], 3 nM in data set [2] and 55 nM in data set [3]. Moreover, the dH in data set [2] was -34 kJ/mol.

B2: IL-11Δ10/IL-11Rα_(D1-D3)/gp130EC trimer (complex, human)
chain 1: SPDPRAELDSTVLLTRSLLADTRQLAAQLRDKFPADGDHNLDSLPTLAMSAGALGALQLPGVLTRLRADLLSYLRHVQWLRRAGGSSLKTLEPELGTLQARLDRLLRRLQLLMSRLALPQPPPDPPAPPLAPPSSAWGGIRAAHAILGGLHLTLDWAVRGLLLLKTRL
chain 2: SSPCPQAWGPPGVQYGQPGRSVKLCCPGVTAGDPVSWFRDGEPKLLQGPDSGLGHELVLAQADSTDEGTYICQTLDGALGGTVTLQLGYPPARPVVSCQAADYENFSCTWSPSQISGLPTRYLTSYRKKTVLGADSQRRSPSTGPWPCPQDPLGAARCVVHGAEFWSQYRINVTEVNPLGASTRLLDVSLQSILRPDPPQGLRVESVPGYPRRLRASWTYPASWPCQPHFLLKFRLQYRPAQHPAWSTVEPAGLEEVITDAVAGLPHAVRVSARDFLDAGTWSTWSPEAWGTPSTGT
chain 3: ELLDPCGYISPESPVVQLHSNFTAVCVLKEKCMDYFHVNANYIVWKTNHFTIPKEQYTIINRTASSVTFTDIASLNIQLTCNILTFGQLEQNVYGITIISGLPPEKPKNLSCIVNEGKKMRCEWDGGRETHLETNFTLKSEWATHKFADCKAKRDTPTSCTVDYSTVYFVNIEVWVEAENALGKVTSDHINFDPVYKVKPNPPHNLSVINSEELSSILKLTWTNPSIKSVIILKYNIQYRTKDASTWSQIPPEDTASTRSSFTVQDLKPFTEYVFRIRCMKEDGKGYWSDWSEEASGITYEDRPSKAPSFWYKIDPSHTQGYRTVQLVWKTLPPFEANGKILDYEVTLTRWKSHLQNYTVNATKLTVNLTNDRYLATLTVRNLVGKSDAAVLTIPACDFQATHPVMDLKAFPKDNMLWVEWTTPRESVKKYILEWCVLSDKAPCITDWQQEDGTVHRTYLRGNLAESKCYLITVTPVYADGPGSPESIKAYLKQAPPSKGPTVRTKKVGKNEAVLEWDQLPVDVQNGFIRNYTIFYRTIIGNETAVNVDSSHTEYTLSSLTSDTLYMVRMAAYTDEGGKDGPEFTFTTPKFAQGEIE
notes: IL-11, human, IL-11Δ10, as m1; numbers count on: the mature protein; IL-11Rα, human, D1-D3, as m8; gp130, human, D1-D6, as m12; Two such trimers associate to the hexamer; also called one half of the gp130EC complex; source: equimolar mix of the purified proteins; not shown: His6, N-terminal, cleaved; His8, N-terminal, cleaved; copies: 1 + 1 + 1
As to B2, in data set [4], the binding result is “binds”.

B3: IL-11Δ10 (ligand, human)
chain: SPDPRAELDSTVLLTRSLLADTRQLAAQLRDKFPADGDHNLDSLPTLAMSAGALGALQLPGVLTRLRADLLSYLRHVQWLRRAGGSSLKTLEPELGTLQARLDRLLRRLQLLMSRLALPQPPPDPPAPPLAPPSSAWGGIRAAHAILGGLHLTLDWAVRGLLLLKTRL
notes: numbers count on: the mature protein; also called N-terminally truncated form of IL-11; WT IL-11Δ10; not shown: His6, N-terminal, cleaved
Turning to B3, in the data set with gp130EC [5], the binding result is reported as “binds”.

For B4, the Kd in the data set with gp130EC [6] amounted to 4 nM.

The values above are taken from paper PMC10662374, “Structures of the interleukin 11 signalling complex reveal gp130 dynamics and the inhibitory mechanism of a cytokine variant” (Nature Communications, 2023).
